# Measurements as given in patent US20120316071A1 (published 2012).
# B1: Fab VH1-46_IGHD6-6*01_IGHJ1*01 S102A/S103P/S104F/H111F/I51S/N52L/S54T/G56H (APFF SLTH) & L6_IGKJ1*01 (Fab, V domains shown)
# VH: QVQLVQSGAEVKKPGASVKVSCKASGYTFTSYYMHWVRQAPGQGLEWMGISLPTGHSTSYAQKFQGRVTMTRDTSTSTVYMELSSLRSEDTAVYYCAREEYAPFSAEYFQFWGQGTLVTVSS
# VL: not shown
# notes: Fab made in E. coli; CH1 with tags and kappa CL are not included
# Columns and labels:
# [1] = molecular target: T1, Recombinant Human DLL4 (delta-like protein 4) (human, UniProt Q9NR61 27-529); test: ELISA on coated DLL4, 100 nM Fab
# T1 construct: Bought recombinant human DLL4 (R&D Systems Cat#1506-D4/CF), coated on the plate; also called rHuman DLL4; Delta-like 4
# [2] = molecular target: T1, Recombinant Human DLL4 (delta-like …); test: 96-well plate ECL (MSD) binding assay on coated DLL4, 10 nM Fab
binder,measurement,setting,value
B1,ELISA signal,[1],0.786
same,ECL signal,[2],135000
